Experimental data from PMC10318394.

B1: phospholamban (PLN), wild type, in mouse heart, P61014 1-52 (natural protein)
chain: MEKVQYLTRSAIRRASTIEMPQQARQNLQNLFINFCLILICLLLICIIVMLL
B2: synthetic full-length PLN, P61014 1-52 (natural protein)
chain: B1 chain

Tests used:
[1] = biological target: T1, phospholamban (PLN), wild type, in mouse heart (mouse), P61014; assay: SDS-PAGE and western blot; conditions: remark: other sources report otherwise
T1 chain: B1 chain

[2] = biological target: T2, synthetic full-length PLN, P61014; assay: SDS-PAGE; conditions: remark: other sources report otherwise
T2 chain: B1 chain

Binder | stoichiometry N [1] | stoichiometry N [2]
B1 | 5 | 
B2 |  | 5
